47 sequences from the NTF2 design screens of Basanta et al. (2020) can be followed below.

A short description of this data set: protease stability score; higher = more stable; yeast display proteolysis, trypsin and chymotrypsin.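 Also: relative to predicted unfolded state with 0 unfolded-like and 1 meaning tenfold more protease.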
“SESEKASEIATKELEEVEKTGDEKTIEDYMDPNTRLHINGVDLHGMENFLEFWHRLLRKLGFESTSFHLKSSRIQGNKIKMHSIIHVKQGEKDISFDVEYIALKFNGRWIEESMSSK” showed a protease stability score of 1.32. In the case of “DEDKEFMERLARMFWHSILTGDEHRISNLADPNMKLEVDGQRFHGREEMERASKERWERLGVDHIHIEDLRVVGDKVTIHTHVDINGKEWRVDIEVKIINGKIKEIRIERHEL” it was 1.09; in that of “DKEEDEFRKAFEIVRHTWKTGDEHLLEKLMDPDARMDVNGVHNHGREEATKTVFEIVEKIKNARLEFKRIEVYDGRIFFHMDWDVNGVRVFVLIISIKVDGRWRHKSYSEDRV”, 0.856. The same measure for “DEEERSFELALRLLERTIKTGNEDDWRRMLDPHTKIIIGDKEFHGMEDAEKILREHIHRIDHFHDIHLHRIRVQGDKIHMDVRLDGRINGRRDILIARFTVVKVDGRWVIHQVESH”: 1.22; for “DEIEKHHRELIELLFHWWHTGDFDSFHRFADPDVKLDFNGVEIHGRERANEFMTRLKEEIRIDDVKLERVQVIDGRMIIHGRRDGNVNGQKEDREVELYVIAINGRIKSVEIRIR”: 1.71. “NEDEKLAEDAIQEYRHSVKTGDENFLKHLADPDVRMDYNGREYHGREEWEKFLRNILRHLRPKDFRIKHFDYYGDYMHFEGLHVGQINGKETHLHTEIIFLKINGRWHLRSIRIE”: the protease stability score was 0.401.

“DESERDMETFVRITMDELVTGNEESIEEMLDPNVRLEVNGRQFHGREDATRIISEWIKILGINHRRLEEIRFVDGRAEVIVEIRVGDKRSELILISLKVNGQWRMERFEIRNE”: the protease stability score was determined as 2.09. In turn, “DEIERESRKFFELWVHWYRTGNFEEIHKNLDPNARIEINGREIHGREDVLRLLEEIAKQFDHIEVELKDMHVQGDKMTIEGIIIFHFNGKRVEIHMIHIVLKINGQWFEHSQEYN” had a protease stability score of 0.626. Take “KEEEDIVRHVVEKFIKNLLTGDFHSLMHMADPNVLVNFNGKENIGRELAVKTIERWWKELGVKHFEHFDLHDITIFDGKASLDTRVHGEINGKVHDFKTRIIIQKINGRWTVHSVEFE”: the protease stability score worked out at 1.22. Regarding “SEEEKRMTEDAEHFWRRFLTGDWRTLSRLIDPHVIIHINGVDLHGRHDAHREMEEHAEQFKNIKVHIDHIDVVGDKLHVDVTININGRRFKEEIIIVMFNGRVKELEVRTH”, the protease stability score is 1.61. In the case of “DEEEEILREFSEKWLHAFRTGDWRDIWHLMDPHVKVIIFVDGREKEIHGREEYATQLHERLEKVKGMRFRDKDMDHVNGRLVINVTVHQGDKHKEFRIIIDVVNGRVKRIEIHLH” it was 2.06; in that of “DEDERLAEEAVKLLIEINRTGDEDLFERNIDPNAQSDINGRRLHGMEQISEFLLRIKNIKLQPRHVDVQGDKMRVEGHLHINGQTHEVRWFVTKINGVWLITEIRVH”, 1.12.

“REEEKIYHHLTEMWYEMLHTGNEEERERLFDPNTRVNIGDYHFHGREKLLEAYRRWRHMLGIKHYEVDRVEVIGDKVFSQGHSKAENHRLDVRIVIVVWNGRLKETSVDIH” showed a protease stability score of 1.04. With “DEKDRLSEELAKHLYRMMYTGDWERIFKMADPHVRLVIGDKEFHGRENFEETLRDHLEKIKNATMRLDDIELQGDKVHIFFTIHVNGREVEVEVHIRVIDGRIHHVDVQVRWV”, the protease stability score was 1.49.

Sequence “SETHMESKIASEIFSDIMHTGDFRTLLRYADPHVRYIVGDKTMHGREIMVEEFKELWKTWGVDRVEVRIEDIKVIGEKVEIHGTLIIGEKTLRVVVISTKVNGQWIQDTFNVDEK” came in with a protease stability score of 0.838. “SEHSHFLVELALIFWKALVTGDEERLDRLIDPNTRLEIGDKEEIGRENIIRKLDHIRIKTEEITVRDYRTQGDKFHMIGHVDLHFDFNGVRHRFTTEVRVDLTTVDGKIHSHHIKYR”: the protease stability score amounted to 0.145.

Turning to “DEVIEELERFHRTYQHAVHTGDEETHADLMDPNVRIHIGDKHIHGREWLIELVHRLGFKHSKEHWIIRRYDLQGNKVDEDGEVKRILNINGVLEHEERRVRIIILKIDGKWIIHSMHIR”, the protease stability score is 0.433.

“SEDDEILERMLRELIHLIRTGDEDSIREMADPNVRLIINGKEFHGMEEYIKTWHRILERFDHLRHVELHDEHRFDGRVRIWGTLNHRIGDKHTRFTVHIVALKFNGRWILKSEEIT” registered a protease stability score of 1.36.

Turning to “DEEEHLMREALNTFMRTLETGDERQLNELLDPDVRSRVDGQDLHGREHVVRLFEEFRRQARIHHVDVHHMDVIGDWIRVELRVDIRIGDKLYTYKKHIVALKVDGRWFMHRVEIH”, the protease stability score turned out to be 0.773. With “DEEKKLYHHIWDRLRRALETGNEEELHKLADPDVRVIIGDKHFHGRDELYRLTEEIRVVITEIRLHDKDHQGDKVILDVEERVNVQVDGKETEYRFRSTLYFVKINGRWTLRRIELK”, the protease stability score amounted to 1.52.

As to “SEEEKTSHHLLKLIKHDRETGNEKRMEEYIDPHVKLLINGREFHGWEDALHWIREAGIKHFELKHIDIIGEKLRIDGVINYNGQTHRITFHAIKVDGVWLNKEINHG”, the protease stability score is 0.121.

In turn, “SEEERLAEHYYRETIELITTGDWRKLLELFDPDARLVIGDKTYHGMDTIIKIWEELRMHIRDVHFHHVSVIDGRIHLDVVVDVTKNIDGVRIRTTHRVHIIMEKIDGKWFVREIRIK” showed a protease stability score of 2.38.

In turn, “REDEEITHKLLELLLTVIRTGDEQEMLNLLDPNTRHDVNGKHLHGRETAHRLFHEWSRHMRIHDLEIHDEKKIGNKVHIDGRLDGHIDGKREKIEVEFVIVKIDGRWVINSMTIK” returned a protease stability score of 0.931. The same measure for “DEEEQHSRELAEIYFEIWETGDFHTHKRMMDPNAKLDYNGQTIHGREHIVEYLRHLWERVKGVRFHLDSVHLQGDWLHIRGTLQVDGQHHKVDIHVQIVDGVLHEEHIRVR”: 1.53.

Sequence “SEEDKHTEKLVRELWHAFETGDEDFILDMADPDVKFDFNGRKNVGREEFSRIWEDIFRRFKNIQLELTSITFQGHKVHTKGRTRINGKHHELIVHVVIVNGRLESLTIIIN” came in with a protease stability score of 1.49. In the case of “HEEEEIERIAYNIYEYVRKTGDERVMTEMADPDARLIYGDKELVGREHMVQFLRWLLEQYKNVQLHIEHVEMIGDFVKIQSNLNVNGRTIEVELILLKYNGKWRIRSSVFK” it was 1.07; in that of “SEEKHYFDSMLEIWRHLMQTGDERLFSELFDPNALVLFNGRHDHGRDAFRWILLQLRIDHINVHLRDFRKQGNKIIIHSEIEVDFTVNGQRREDSHMQIIIFHKIDGRWYATSLEVQ”, 1.53. Sequence “SEDHLEARETVTEELRARQTGDERRLDELIDPNTRLEINGKEVHGMEQIIEETRRLGVDVVEIRLERHDRFNGVIHVRGRLHYNWNGKSIDHETELIVYKVDGQWIVHSIHVL” came in with a protease stability score of 1.05. With “SEDTATAHLMVEYFTKSVHTGDEHTTKRQVDPTMRFDFNGKQIIGREKWKEDLLHWRMETTSHVDDFKLQGDKVRSRTTLHMILHFDGVVYHNTYDTEIIYHKVDGRWYFTEFHVR”, the protease stability score is 1.14. In the case of “SEEEKHIIELFEIWLEAIRTGDENLLLKLADPHYRVIIDVGNKHIHRHGWKEFMEWLRHFTREMRIRHLTLRDYRAVNGVFHADTESVEEIGEFELRTRMHIVLVIINGVFHSVRHKIE” it was 1.23; in that of “DEMDHWVMEMFEHLLKLFLTGDEEKWERLADPNVKTRFIINGKDVRLHGREHFKKLVDELRITSVDLRDIRAVGNKAEVEGRVEGEFDGQTHILDMRVRFEIINGKLKKEEYVIR”, 1.27; in that of “DEEDRHAEEVFRTLIHAWHTGDEDTLKRMLDPDVKILIGDKDHHGRDFFAREMHEISKHLRVHFELHELDVINGRVHVHGTLVITINGREIRITVHIHVLIVDGRVKLQKWIKV”, 0.583. “SELEEQVKYALELFIRTFETGDEDLSSQLLDPNTRLEINGREIHGRELVSKFWLKFATEMRLRRTHTRSIRNVDGKAINHTTIDVEIGDKRTTIDVELIAYKFDGRWVNEKIQFH” displayed a protease stability score of 0.828. The same measure for “REQEEFSENAIKLWEHLTKTGDEEKMTKLMDPHARLDVNGQQLVGRELIEKIIREILKRIDHLDHIEFEHIDNQGEKVIIHSRVIFIFNGRKIDTEVHVIMIKINGQWRIESMTEK”: 1.18; for “DEERHYVEHIIKLLSRHIYTGDFEAFEELLDPNALIIIGDKHLVGREDWRRLVHEIRIRNEHVEIEDVNVYDGRAESKVTFHGRREYDGRTTETNLDVNYFLLKINGRWVFESLEIR”: 1.67. The same measure for “DLYKHWTDVLLHLFLHVSRTGDEEEVVRLMDPNTLIIINGQEIHGREEIKRTFREMRVDDERLKDMDKIGNKVRVDGEVRITVDGQERTSRAHMVVLKVDGRWTIHSLRIE”: 1.77. On to “DEDKKVFETALRILIHYERTGDWELLHRLADPNTRMIQGDKLHIGREKAKEFINKWTEEMRPTDVRIDHVEIINGRIHIEGTTHGDVNGQRHDLEVHILSIKVDGRWRLKEFELK”, for which the protease stability score stood at 1.2. “DEDRQDAEYALRLWLETWVTGDEDTLLRLMDPHYRLEIGEYHRHGRENVVTFLRFLVEHLGIKHTHVEVHDLDSQGDKVRAHTTLHNKYNGVELVIDSEIILTKINGRWYFKSMHFG” displayed a protease stability score of 1.2. Sequence “DEEEDDVRRLIERFQHNFDTGNWHMLEHLVDPHARINFDGVESHGMELIVHVNEHMRIHDTHIRDIRIDVVGDKVFVENIVRVESEINGQHRDVEMRISMVITKVNGRWLIKEIRIKIH” returned a protease stability score of 0.974.

As for “DETHVQMERFIEEHIKSHITGDEDYLRENIDPEARVVIDGQTYHGWKAIKDAIDQWRVTDMRIRHVRVQGEKVDIHGRLHVDVNGRNIDLEVRIIVTKVDGRWVVDQLIFN”, the protease stability score was 1.16. On to “SEDEKQLEHAVKLFIESLRTGDEHSLENLVDPNVRMQINGVELHGRELFIHLFREWRFHSVHLRHLDLQGDKVHLDGKLDVRFDGRRYEVILRTHIEKIDGRWHLRYMYEE”, for which the protease stability score was determined as 1.45. “HEEDKWMKEVLYRFYEHYQTGDEDSLVKLMDPHAKLSFEGRENHGRDAIKTYWDIMGFDHLRLRDYEIRIIDGRAHLIVDTEIEIGDKRRRTIIIMHVLKFNGRWIVTHFHVEVR” displayed a protease stability score of 0.835. Regarding “SDEDHSSHLAHRWLLEILETGDEERLLRLADPNYRLDVDGRRFIGREDLLRWMKHVVERADHIELRDHHVDNQGDKVSSDVIVNERFDGKTERYRTHIVINKFDGKWVFHRFKIK”, the protease stability score worked out at 0.928.

On to “DEEDRQAEHIARLVIEELLTGDEESFSHLVDPDTRSEFDGKEFIGREWFNKWLRRILEEIRFHINPTEIRYQGDKAIVHGRLHLHYNGQDVHITVHYKLIVINGRHKRIKEERS”, for which the protease stability score stood at 1.3. The sequence “HEDRKLEREIAEEMVKLWLTGDETRFEQLADPHVRVEDGDKESHGRENFSKLVRHRKTEFGIDHIEVEDIRVYDGRVEIRVRMEIGEKETHVRIIQVVINGRLKSVHLHFR” came in with a protease stability score of 0.771.

“DEEEELARKSLEVWLKSSQTGDENHLEHMFDPNARLNIDGVELIGREHAKIWAKELRIHDIYPRRLRIQGNKLFLDLESDEEYNGKRTHFRRHLVMLKVNGVWIIESMHVE” returned a protease stability score of 1.43.

In the case of “SEHEEKSKEASEQMFQILRTGDWHKWLELLDPHYQLEIGDKRFHGMEISSELLRHLLEELGVERVEVYVKHQETQGDKVINDGSVDINGRELRMILYARKVDGRWVLKSMKVK”, the protease stability score is 1.39.
